The values that follow come from PMC8786643 (iScience, 2022).

Data set [1] has as its target T1, mouse Glut12/Slc2a12 (Mus musculus, UniProt Q8BFW9).
T1 construct: full-length wild-type ORF in pEGFP-N1, EGFP-tagged; transient expression in HEK293 cells
T1 sequence (Q8BFW9 1-622): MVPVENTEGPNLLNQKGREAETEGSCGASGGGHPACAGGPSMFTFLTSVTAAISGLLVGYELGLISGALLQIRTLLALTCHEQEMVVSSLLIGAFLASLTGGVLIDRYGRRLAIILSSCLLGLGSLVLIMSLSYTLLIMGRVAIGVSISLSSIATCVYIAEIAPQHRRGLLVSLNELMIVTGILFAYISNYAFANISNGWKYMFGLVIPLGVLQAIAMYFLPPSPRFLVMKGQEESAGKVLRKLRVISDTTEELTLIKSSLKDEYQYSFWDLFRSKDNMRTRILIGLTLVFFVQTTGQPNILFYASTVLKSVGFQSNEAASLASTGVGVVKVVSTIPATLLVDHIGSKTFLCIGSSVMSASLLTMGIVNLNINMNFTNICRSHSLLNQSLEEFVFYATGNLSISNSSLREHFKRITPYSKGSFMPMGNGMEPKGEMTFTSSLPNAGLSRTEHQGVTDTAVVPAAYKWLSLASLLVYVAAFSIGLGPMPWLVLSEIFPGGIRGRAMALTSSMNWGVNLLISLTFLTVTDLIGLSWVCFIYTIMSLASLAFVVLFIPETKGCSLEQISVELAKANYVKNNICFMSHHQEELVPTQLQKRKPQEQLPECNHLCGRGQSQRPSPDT
As to the kind of experiment: [[…]-14C]-urate uptake in transiently transfected HEK293 cells. It is filed as cell-based. The following applies: 10 µM urate, Krebs-Ringer buffer, pH 5.4, 10 min; labelled compound.

Substrate in data set [2]: O=C1O[C@H]([C@@H](O)CO)C(O)=C1O
As to the kind of experiment: cells, lysate or membranes. The following applies: Krebs-Ringer buffer, pH 5.4, 37 °C, labelled compound.

For `O=c1[nH]c(=O)c2[nH]c(=O)[nH]c2[nH]1` [urate], the “[8-14C]-urate uptake in transiently transfected HEK293 cells” value in data set [1] was “cell-based urate uptake assays using human GLUT12- and mouse Glut12-expressing HEK293 cells were conducted”.

B1: mouse Glut12/Slc2a12 (Mus musculus) (protein)
chain: T1 sequence (Q8BFW9 1-622)
For B1, the Km in data set [2] was 1245 µM.

B2: human GLUT12/SLC2A12 (Homo sapiens) (protein)
chain: MVPVENTEGPSLLNQKGTAVETEGSGSRHPPWARGCGMFTFLSSVTAAVSGLLVGYELGIISGALLQIKTLLALSCHEQEMVVSSLVIGALLASLTGGVLIDRYGRRTAIILSSCLLGLGSLVLILSLSYTVLIVGRIAIGVSISLSSIATCVYIAEIAPQHRRGLLVSLNELMIVIGILSAYISNYAFANVFHGWKYMFGLVIPLGVLQAIAMYFLPPSPRFLVMKGQEGAASKVLGRLRALSDTTEELTVIKSSLKDEYQYSFWDLFRSKDNMRTRIMIGLTLVFFVQITGQPNILFYASTVLKSVGFQSNEAASLASTGVGVVKVISTIPATLLVDHVGSKTFLCIGSSVMAASLVTMGIVNLNIHMNFTHICRSHNSINQSLDESVIYGPGNLSTNNNTLRDHFKGISSHSRSSLMPLRNDVDKRGETTSASLLNAGLSHTEYQIVTDPGDVPAFLKWLSLASLLVYVAAFSIGLGPMPWLVLSEIFPGGIRGRAMALTSSMNWGINLLISLTFLTVTDLIGLPWVCFIYTIMSLASLLFVVMFIPETKGCSLEQISMELAKVNYVKNNICFMSHHQEELVPKQPQKRKPQEQLLECNKLCGRGQSRQLSPET
On to B2, for which the Km in data set [2] (5 min uptake) was determined as 846 µM.
